# ± gives the standard error. For some assays here: Variants at the floor of the assay were thinned out.
# B1: glmS ribozyme (parent)
# chain: AUAAAAGCGCCAGAACUACAGAAAUGUAGUUGACGAGGAGGAGGUUUAUCGAAUUUUCGGCGGAUGCCUCCAAA
# Experiments:
# Details in all cases: with glucosamine-6-phosphate
# [1] = variants of: B1; assay: kcat; higher = faster cleavage; RNA array
# Outline: (§1)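 Tiles of sequenced MiSeq chips were imaged over ~14 h at 37 °C. On them, barcoded ribozyme variants had been transcribed in situ by E. coli RNA polymerase and were tracked via a hybridised Cy3 probe while glucosamine-6-phosphate (40 μM to 10 mM) in HEPES/KCl/Mg(OAc)2 buffer flowed in. Per-tile medians, normalised to baseline and to non-cleaving reference variants, were fit to one- or two-exponential decays for kobs, and weighted Michaelis–Menten fits gave kcat and KM.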
# [2] = variants of: B1; assay: self-cleavage kobs at 640 uM GlcN6P; higher = faster cleavage; RNA array
# Outline: as §1
# [3] = variants of: B1; assay: self-cleavage kobs at 2500 uM GlcN6P; higher = faster cleavage; RNA array
# Outline: as §1
# [4] = variants of: B1; assay: self-cleavage kobs at 10000 uM GlcN6P; higher = faster cleavage; RNA array
# Outline: as §1
# [5] = variants of: B1; assay: KM; higher = weaker cofactor use; RNA array
# Outline: as §1
# [6] = variants of: B1; assay: self-cleavage kobs at 40 uM GlcN6P; higher = faster cleavage; RNA array
# Outline: as §1
# [7] = variants of: B1; assay: self-cleavage kobs at 160 uM GlcN6P; higher = faster cleavage; RNA array
# Outline: as §1
variant,measurement,setting,value
G44A A53C,kcat,[1],0.000111 ± 2.5e-05 s⁻¹
same,self-cleavage kobs at 640 uM GlcN6P,[2],4.9e-05 ± 2.1e-05 s⁻¹
same,self-cleavage kobs at 2500 uM GlcN6P,[3],5.83e-05 ± 1.3e-05 s⁻¹
same,self-cleavage kobs at 10000 uM GlcN6P,[4],0.0001 ± 1.9e-05 s⁻¹
A14C G41U,kcat,[1],0.000291 ± 6.9e-05 s⁻¹
same,self-cleavage kobs at 640 uM GlcN6P,[2],0.000102 ± 1.6e-05 s⁻¹
same,self-cleavage kobs at 2500 uM GlcN6P,[3],0.000161 ± 2.2e-05 s⁻¹
same,self-cleavage kobs at 10000 uM GlcN6P,[4],0.000272 ± 4.2e-05 s⁻¹
U56A C67G,kcat,[1],0.00221 ± 0.00081 s⁻¹
same,KM,[5],1310 ± 590 µM
same,self-cleavage kobs at 40 uM GlcN6P,[6],6.73e-05 ± 6.8e-06 s⁻¹
same,self-cleavage kobs at 160 uM GlcN6P,[7],0.000246 ± 2.7e-05 s⁻¹
same,self-cleavage kobs at 640 uM GlcN6P,[2],0.000684 ± 0.00015 s⁻¹
same,self-cleavage kobs at 2500 uM GlcN6P,[3],0.000905 ± 0.00024 s⁻¹
same,self-cleavage kobs at 10000 uM GlcN6P,[4],0.00313 ± 0.00047 s⁻¹
G32C C71G,kcat,[1],1.39e-05 ± 7.5e-07 s⁻¹
same,KM,[5],86.6 ± 35 µM
U54G C58G,kcat,[1],0.000237 ± 2.6e-05 s⁻¹
same,KM,[5],4280 ± 1000 µM
same,self-cleavage kobs at 2500 uM GlcN6P,[3],9.35e-05 ± 1.7e-05 s⁻¹
same,self-cleavage kobs at 10000 uM GlcN6P,[4],0.000164 ± 2e-05 s⁻¹
G38U G51U,kcat,[1],< 1e-05 s⁻¹
U30C C67G,kcat,[1],1.07e-05 ± 2.3e-06 s⁻¹
same,self-cleavage kobs at 40 uM GlcN6P,[6],< 1e-05 s⁻¹
G29A G38C,kcat,[1],< 1e-05 s⁻¹
same,self-cleavage kobs at 10000 uM GlcN6P,[4],< 1e-05 s⁻¹
A6U A14U,kcat,[1],4.98e-05 ± 1.9e-06 s⁻¹
same,KM,[5],310 ± 92 µM
same,self-cleavage kobs at 640 uM GlcN6P,[2],3.6e-05 ± 1.2e-05 s⁻¹
same,self-cleavage kobs at 2500 uM GlcN6P,[3],4.51e-05 ± 1.4e-05 s⁻¹
same,self-cleavage kobs at 10000 uM GlcN6P,[4],4.79e-05 ± 6.3e-06 s⁻¹
U30A G59A,kcat,[1],3.04e-05 ± 2.1e-06 s⁻¹
same,KM,[5],2080 ± 490 µM
same,self-cleavage kobs at 40 uM GlcN6P,[6],< 1e-05 s⁻¹
same,self-cleavage kobs at 10000 uM GlcN6P,[4],2.5e-05 ± 1.2e-05 s⁻¹
A14G U55C,kcat,[1],0.0632 ± 0.029 s⁻¹
same,self-cleavage kobs at 40 uM GlcN6P,[6],0.00179 ± 0.00021 s⁻¹
same,self-cleavage kobs at 160 uM GlcN6P,[7],0.00449 ± 0.00098 s⁻¹
same,self-cleavage kobs at 640 uM GlcN6P,[2],0.0382 ± 0.012 s⁻¹
same,self-cleavage kobs at 10000 uM GlcN6P,[4],0.0522 ± 0.015 s⁻¹
C34A G51C,kcat,[1],< 1e-05 s⁻¹
same,self-cleavage kobs at 40 uM GlcN6P,[6],< 1e-05 s⁻¹
same,self-cleavage kobs at 10000 uM GlcN6P,[4],< 1e-05 s⁻¹
A39G U55C,kcat,[1],0.0858 ± 0.023 s⁻¹
same,KM,[5],3000 ± 920 µM
same,self-cleavage kobs at 40 uM GlcN6P,[6],0.00123 ± 0.00015 s⁻¹
same,self-cleavage kobs at 160 uM GlcN6P,[7],0.00406 ± 0.0011 s⁻¹
same,self-cleavage kobs at 640 uM GlcN6P,[2],0.0122 ± 0.0029 s⁻¹
same,self-cleavage kobs at 10000 uM GlcN6P,[4],0.0709 ± 0.018 s⁻¹
U31G A33U,kcat,[1],0.000102 ± 8.8e-06 s⁻¹
same,KM,[5],4090 ± 910 µM
same,self-cleavage kobs at 2500 uM GlcN6P,[3],3.73e-05 ± 1.2e-05 s⁻¹
same,self-cleavage kobs at 10000 uM GlcN6P,[4],7.23e-05 ± 1.2e-05 s⁻¹
A6G U54A,kcat,[1],0.000561 ± 5.2e-05 s⁻¹
same,KM,[5],1600 ± 440 µM
same,self-cleavage kobs at 640 uM GlcN6P,[2],0.000143 ± 5.7e-05 s⁻¹
same,self-cleavage kobs at 2500 uM GlcN6P,[3],0.000387 ± 0.00011 s⁻¹
same,self-cleavage kobs at 10000 uM GlcN6P,[4],0.000476 ± 7.7e-05 s⁻¹
U45A U47G,kcat,[1],0.0105 ± 0.0027 s⁻¹
same,KM,[5],1910 ± 690 µM
same,self-cleavage kobs at 40 uM GlcN6P,[6],0.000279 ± 6e-05 s⁻¹
same,self-cleavage kobs at 160 uM GlcN6P,[7],0.000689 ± 0.00013 s⁻¹
same,self-cleavage kobs at 640 uM GlcN6P,[2],0.00261 ± 0.00054 s⁻¹
same,self-cleavage kobs at 2500 uM GlcN6P,[3],0.00915 ± 0.0018 s⁻¹
same,self-cleavage kobs at 10000 uM GlcN6P,[4],0.00802 ± 0.0015 s⁻¹
U30G G41U,kcat,[1],0.000172 ± 2.3e-05 s⁻¹
same,KM,[5],440 ± 190 µM
same,self-cleavage kobs at 160 uM GlcN6P,[7],3.73e-05 ± 1.4e-05 s⁻¹
same,self-cleavage kobs at 640 uM GlcN6P,[2],0.000153 ± 3.3e-05 s⁻¹
same,self-cleavage kobs at 2500 uM GlcN6P,[3],0.000149 ± 2.6e-05 s⁻¹
same,self-cleavage kobs at 10000 uM GlcN6P,[4],0.000154 ± 2.4e-05 s⁻¹

# — the supplement of paper PMC7125110
